Results on 17 variants are retold here after the supplement of paper PMC7125110.

B1: glmS ribozyme (parent)
chain: AUAAAAGCGCCAGAACUACAGAAAUGUAGUUGACGAGGAGGAGGUUUAUCGAAUUUUCGGCGGAUGCCUCCAAA

Common to all, as to conditions: with glucosamine-6-phosphate
Data set [1] covers variants of B1. In words: kcat; higher = faster cleavage; RNA array. The gist of the method: (§1)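 Ribozyme variants carrying barcodes were transcribed in situ on sequenced MiSeq chips by E. coli RNA polymerase and tracked at 37 °C with a hybridised Cy3 probe. They were exposed to 40 μM to 10 mM glucosamine-6-phosphate in HEPES/KCl/Mg(OAc)2 buffer. kobs came from exponential decay fits of normalised per-tile medians, and kcat and KM from weighted Michaelis–Menten fits.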

In data set [2] the parent is B1. In words: KM; higher = weaker cofactor use; RNA array. The gist of the method: as §1
Variants of B1 are the subject of data set [3]. In words: self-cleavage kobs at 40 uM GlcN6P; higher = faster cleavage; RNA array. A digest of the protocol: as §1
In data set [4] the parent is B1. In words: self-cleavage kobs at 160 uM GlcN6P; higher = faster cleavage; RNA array. A digest of the protocol: as §1
In data set [5] the parent is B1. In words: self-cleavage kobs at 640 uM GlcN6P; higher = faster cleavage; RNA array. The gist of the method: as §1
In data set [6] the parent is B1. Put plainly: self-cleavage kobs at 10000 uM GlcN6P; higher = faster cleavage; RNA array. A digest of the protocol: as §1
The variants in data set [7] derive from B1. In words: self-cleavage kobs at 2500 uM GlcN6P; higher = faster cleavage; RNA array. A digest of the protocol:
as §1

± gives the standard error. For part of these data: Fewer inactive variants are shown than the library holds.

Regarding U54C U56G, the kcat (as a rule, the maximal rate divided by the concentration of active sites) in data set [1] was found to be 0.0154 ± 0.0051 s⁻¹. Moreover, the Michaelis constant (KM) (usually the concentration of substrate that gives half-maximal velocity) in data set [2] was 2680 ± 1100 µM. Further, the “self-cleavage kobs at 40 uM GlcN6P” value in data set [3] was 0.000282 ± 4.7e-05 s⁻¹. Besides, the “self-cleavage kobs at 160 uM GlcN6P” value in data set [4] was found to be 0.000649 ± 0.00019 s⁻¹. Besides, the “self-cleavage kobs at 640 uM GlcN6P” value in data set [5] worked out at 0.0032 ± 0.0011 s⁻¹. Also, the “self-cleavage kobs at 10000 uM GlcN6P” value in data set [6] amounted to 0.0133 ± 0.0027 s⁻¹.

For the variant C16U A64C, the turnover number (kcat) in data set [1] amounted to 0.000145 ± 2.5e-05 s⁻¹. Moreover, in data set [2], the Michaelis-Menten constant (KM) is 2130 ± 970 µM. In data set [5], the “self-cleavage kobs at 640 uM GlcN6P” value turned out to be 2.44e-05 ± 1.1e-05 s⁻¹. Also, the “self-cleavage kobs at 2500 uM GlcN6P” value in data set [7] came to 9.71e-05 ± 1.7e-05 s⁻¹. In addition, in data set [6], the “self-cleavage kobs at 10000 uM GlcN6P” value was found to be 0.000113 ± 1.6e-05 s⁻¹.

In the case of C16U G41U, in data set [1], the catalytic constant (kcat) amounted to 0.00145 ± 0.00031 s⁻¹. The Michaelis constant (KM) in data set [2] was 599 ± 170 µM. For the same variant, in data set [3], the “self-cleavage kobs at 40 uM GlcN6P” value is 9.78e-05 ± 8.3e-06 s⁻¹. The “self-cleavage kobs at 160 uM GlcN6P” value in data set [4] came to 0.000229 ± 4.6e-05 s⁻¹. Further, in data set [5], the “self-cleavage kobs at 640 uM GlcN6P” value worked out at 0.000727 ± 0.00014 s⁻¹. Also, in data set [7], the “self-cleavage kobs at 2500 uM GlcN6P” value is 0.00155 ± 0.00029 s⁻¹. The “self-cleavage kobs at 10000 uM GlcN6P” value in data set [6] came out at 0.00126 ± 0.00027 s⁻¹.

In the case of A6G G32A, the kcat in data set [1] was less than 1e-05 s⁻¹. Besides, the “self-cleavage kobs at 40 uM GlcN6P” value in data set [3] is less than 1e-05 s⁻¹.

On to G32U A39U C67G, for which the kcat in data set [1] is 0.000203 ± 2.3e-05 s⁻¹. Besides, the KM in data set [2] was determined as 4340 ± 1100 µM. In addition, in data set [3], the “self-cleavage kobs at 40 uM GlcN6P” value is less than 1e-05 s⁻¹. Also, the “self-cleavage kobs at 2500 uM GlcN6P” value in data set [7] turned out to be 7.96e-05 ± 1.7e-05 s⁻¹. Also, the “self-cleavage kobs at 10000 uM GlcN6P” value in data set [6] worked out at 0.00014 ± 2e-05 s⁻¹.

Turning to C16G C68G, the catalytic constant (kcat) in data set [1] was determined as 1.82e-05 ± 5.5e-06 s⁻¹.

For the variant A14G U45A, in data set [1], the kcat is 0.077 ± 0.015 s⁻¹. Moreover, the Michaelis constant (KM) in data set [2] was determined as 1340 ± 310 µM. The “self-cleavage kobs at 40 uM GlcN6P” value in data set [3] was 0.00233 ± 0.00047 s⁻¹. In data set [4], the “self-cleavage kobs at 160 uM GlcN6P” value was 0.00764 ± 0.0014 s⁻¹. Also, the “self-cleavage kobs at 640 uM GlcN6P” value in data set [5] came to 0.0331 ± 0.0099 s⁻¹. Besides, the “self-cleavage kobs at 2500 uM GlcN6P” value in data set [7] worked out at 0.0452 ± 0.016 s⁻¹. For the same variant, in data set [6], the “self-cleavage kobs at 10000 uM GlcN6P” value stood at 0.0701 ± 0.026 s⁻¹.

G41U A52U: the kcat in data set [1] was determined as 0.000103 ± 1e-05 s⁻¹. In addition, the Michaelis-Menten constant (KM) in data set [2] worked out at 1340 ± 510 µM. In addition, in data set [7], the “self-cleavage kobs at 2500 uM GlcN6P” value amounted to 7.47e-05 ± 1.3e-05 s⁻¹. For the same variant, the “self-cleavage kobs at 10000 uM GlcN6P” value in data set [6] came out at 8.78e-05 ± 1.2e-05 s⁻¹.

For G60A C70A, the kcat in data set [1] is 1.05e-05 ± 2.5e-06 s⁻¹. Also, the “self-cleavage kobs at 40 uM GlcN6P” value in data set [3] was less than 1e-05 s⁻¹.

On to A36G C70A, for which the catalytic constant (kcat) in data set [1] turned out to be 1.58e-05 ± 4.3e-06 s⁻¹.

For the variant C16A C50U, the kcat in data set [1] was less than 1e-05 s⁻¹. Further, the “self-cleavage kobs at 40 uM GlcN6P” value in data set [3] was less than 1e-05 s⁻¹.

On to G43U C67A, for which the kcat in data set [1] worked out at 0.00389 ± 0.00036 s⁻¹. For the same variant, the KM in data set [2] amounted to 1310 ± 180 µM. In addition, the “self-cleavage kobs at 40 uM GlcN6P” value in data set [3] came to 0.000122 ± 1.7e-05 s⁻¹. In addition, the “self-cleavage kobs at 160 uM GlcN6P” value in data set [4] came to 0.000392 ± 8.9e-05 s⁻¹. Also, the “self-cleavage kobs at 640 uM GlcN6P” value in data set [5] was 0.00129 ± 0.00023 s⁻¹. Besides, the “self-cleavage kobs at 2500 uM GlcN6P” value in data set [7] amounted to 0.00219 ± 0.00043 s⁻¹. Further, the “self-cleavage kobs at 10000 uM GlcN6P” value in data set [6] was 0.00371 ± 0.0005 s⁻¹.

For the variant C16U C58A C67G, in data set [1], the kcat is 0.000119 ± 2.4e-06 s⁻¹. The KM in data set [2] worked out at 283 ± 23 µM. In addition, the “self-cleavage kobs at 160 uM GlcN6P” value in data set [4] came out at 4.51e-05 ± 1.9e-05 s⁻¹. Also, the “self-cleavage kobs at 640 uM GlcN6P” value in data set [5] was found to be 8.08e-05 ± 1.6e-05 s⁻¹. Further, the “self-cleavage kobs at 2500 uM GlcN6P” value in data set [7] stood at 0.000106 ± 2e-05 s⁻¹. The “self-cleavage kobs at 10000 uM GlcN6P” value in data set [6] came out at 0.000118 ± 2.5e-05 s⁻¹.

A42U U65G: the kcat in data set [1] stood at 0.000343 ± 2.8e-05 s⁻¹. In addition, the Michaelis constant (KM) in data set [2] is 3030 ± 500 µM. Besides, the “self-cleavage kobs at 640 uM GlcN6P” value in data set [5] amounted to 5.7e-05 ± 1e-05 s⁻¹. Besides, the “self-cleavage kobs at 2500 uM GlcN6P” value in data set [7] was 0.000165 ± 1.9e-05 s⁻¹. Further, in data set [6], the “self-cleavage kobs at 10000 uM GlcN6P” value amounted to 0.000257 ± 2.8e-05 s⁻¹.

Consider G29C A64G, for which the kcat in data set [1] turned out to be 0.00121 ± 0.00056 s⁻¹. In addition, the “self-cleavage kobs at 40 uM GlcN6P” value in data set [3] was found to be 3.98e-05 ± 1.1e-05 s⁻¹. The “self-cleavage kobs at 160 uM GlcN6P” value in data set [4] is 0.000126 ± 2.9e-05 s⁻¹. For the same variant, the “self-cleavage kobs at 640 uM GlcN6P” value in data set [5] amounted to 0.000339 ± 5.2e-05 s⁻¹. Moreover, the “self-cleavage kobs at 2500 uM GlcN6P” value in data set [7] was determined as 0.000495 ± 0.00014 s⁻¹. Further, the “self-cleavage kobs at 10000 uM GlcN6P” value in data set [6] is 0.00181 ± 0.00034 s⁻¹.

Regarding C34U C58G, in data set [1], the turnover number (kcat) is less than 1e-05 s⁻¹. Besides, in data set [6], the “self-cleavage kobs at 10000 uM GlcN6P” value was less than 1e-05 s⁻¹.

With G13A C71G, the kcat in data set [1] was found to be 5.85e-05 ± 4.1e-06 s⁻¹. For the same variant, the “self-cleavage kobs at 640 uM GlcN6P” value in data set [5] amounted to 5.42e-05 ± 1.3e-05 s⁻¹. In data set [7], the “self-cleavage kobs at 2500 uM GlcN6P” value amounted to 5.71e-05 ± 9.7e-06 s⁻¹. The “self-cleavage kobs at 10000 uM GlcN6P” value in data set [6] is 5.48e-05 ± 7e-06 s⁻¹.
